Consider two proteins from paper PMC10400579, “FDW028, a novel FUT8 inhibitor, impels lysosomal proteolysis of B7-H3 via chaperone-mediated autophagy pathway and exhibits potent efficacy against metastatic colorectal cancer” (Cell Death & Disease, 2023).

Series [1] can be described thus: immunoblot of B7-H3, SW480 and HCT-8. The following applies: glycan changed form; control: control siRNA / untreated cells.
Series [2] in a line: immunofluorescence colocalization, Pearson's R. The following applies: glycan changed form; control: control siRNA / untreated cells.
A short description of series [3]: cell surface biotinylation, membrane-fraction immunoblot. The following applies: glycan changed form; control: control siRNA.
Series [4] can be described thus: CHX chase, B7-H3 remaining by immunoblot. The settings on record: glycan changed form; control: control siRNA.

B1: B7-H3 (CD276): FDW028 (FUT8 inhibitor) (protein)
parent chain: MLRRRGSPGMGVHVGAALGALWFCLTGALEVQVPEDPVVALVGTDATLCCSFSPEPGFSLAQLNLIWQLTDTKQLVHSFAEGQDQGSAYANRTALFPDLLAQGNASLRLQRVRVADEGSFTCFVSIRDFGSAAVSLQVAAPYSKPSMTLEPNKDLRPGDTVTITCSSYQGYPEAEVFWQDGQGVPLTGNVTTSQMANEQGLFDVHSILRVVLGANGTYSCLVRNPVLQQDAHSSVTITPQRSPTGAVEVQVPEDPVVALVGTDATLRCSFSPEPGFSLAQLNLIWQLTDTKQLVHSFTEGRDQGSAYANRTALFPDLLAQGNASLRLQRVRVADEGSFTCFVSIRDFGSAAVSLQVAAPYSKPSMTLEPNKDLRPGDTVTITCSSYRGYPEAEVFWQDGQGVPLTGNVTTSQMANEQGLFDVHSVLRVVLGANGTYSCLVRNPVLQQDAHGSVTITGQPMTFPPEALWVTVGLSVCLIALLVALAFVCWRKIKQSCEEENAGAEDQDGEGEGSKTALQPLKHSDSKEDDGQEIA
For B1, the expression_or_secretion result in series [1] is on record as “decreases”. Moreover, the localisation_or_trafficking result in series [2] is on record as “increases”.

B2: B7-H3 (CD276): FUT8 siRNA (protein)
parent chain: B1 parent chain
For the protein B2, the expression_or_secretion result in series [1] and in series [3] was “decreases” throughout. Besides, in series [4], the degradation_or_half_life result is “decreases”. Moreover, the localisation_or_trafficking entry in series [2] is on record as “increases”.
